System: isolated pancreatic islets from mice
Assay: RNAseq gene expression in isolated pancreatic islets of GCGR antibody treated mice (Table 5)
Type: in vivo, mouse
Conditions: 10 mg/kg, 21 days
Protocol: Mouse islets were isolated by density gradient separation after perfusing pancreas with Liberase TL (Roche, Indianapolis) through the common bile duct. Following a 13 min digestion at 37° C., the pancreas solution was washed and filtered through a 400-μm wire mesh strainer and islets were separated by Histopaque gradient centrifugation (Sigma-Aldrich). Isolated islets were cultured overnight in RPMI-1640 medium supplemented with 10% (v/v) FBS, 10 mM HEPES, 50 μM β-mercaptoethanol, 1.0 mM sodium-pyruvate, 100 U/mL penicillin and 100 μg/mL streptomycin at 37° C. with a 5% CO2 in air atmosphere.
Total RNA was purified from all samples using MagMAX™-96 for Microarrays Total RNA Isolation Kit (Ambion by Life Technologies) according to manufacturer's specifications. Genomic DNA was removed using MagMAX™Turbo™DNase Buffer and TURBO DNase from the MagMAX kit listed above (Ambion by Life Technologies). mRNA was purified from total RNA using Dynabeads® mRNA Purification Kit (Invitrogen). Strand-specific RNA-seq libraries were prepared using ScriptSeq™ mRNA-Seq Library Preparation Kit (Epicentre). Twelve-cycle PCR was performed to amplify libraries. Sequencing was performed on Illumina HiSeq®2000 (Illumina) by multiplexed single-read run with 33 cycles.
Raw sequence data (BCL files) were converted to FASTQ format via Illumina Casava 1.8.2. Reads were decoded based on their barcodes and read quality was evaluated with FastQC (http://www.bioinformatics.babraham.ac.uk/projects/fastqc/). Reads were mapped to the mouse transcriptome (NCBI GRCh37) using CLC Genomics Workbench Version 7.0 (CLCbio) or TopHat2 (Version 2.0.10) allowing two mismatches. Reads mapped to the exons of a gene were summed at the gene level. To identify differentially expressed genes, the statistical significance (p-value) of the differential expressions was assessed with DESeq package (version 1.6 or 2.0). […]

[1] = α-GCGR vs Control, isolated islets

B1: α-GCGR: potent monoclonal GCGR blocking antibody, HCVR/LCVR SEQ ID NOs: 86/88 (antibody, V domains shown)
VH: EVQLVESGGGLVQPGGSLRLSCAASGFTFSNYLMNWVRQAPGKGLEWLANIQEDGIEKYYVDSVKGRFTISRDNAKNSLYLQMNSLRAEDTAVYYCAREPSHYDILTGYDYYYGMDVWGQGTTVTVS
VL: DIQMTQSPSSLSASVGDRVTITCRASQGIRNDLGWYQQKPGKAPKRLIYAASSLQSGVPSRFSGSGSGTEFILTVSSLQPEDFATYYCLQYNSNPFTFGPGTKVDIK
In the case of B1, the “Slc38a5 gene expression in isolated pancreatic islets” value (mice, vs control antibody) is reported as “most upregulated gene”, the “1700086L19Rik Fold change” value [1] is reported as 1.89 and the “1810011O10Rik Fold change” value [1] is reported as −1.64. The “1810041L15Rik Fold change” value [1] was 1.67, the “4930539E08Rik Fold change” value [1] was 1.96 and the “9030617O03Rik Fold change” value [1] was 1.72. For the same molecule, the “AW551984 Fold change” value [1] was 1.69, the “Acta1 Fold change” value [1] was −1.79 and the “Agpat4 Fold change” value [1] was 1.73. The “Agt Fold change” value [1] was 1.78, the “Ang Fold change” value [1] was 1.62 and the “Ano1 Fold change” value [1] was −1.78. The “Anxa3 Fold change” value [1] was −1.53, the “Anxa13 Fold change” value [1] was −1.60 and the “Apoa2 Fold change” value [1] was 1.68. For the same molecule, the “Apod Fold change” value [1] was 1.53, the “Apol7a Fold change” value [1] was −1.51 and the “Arg1 Fold change” value [1] was 1.53. The “Arx Fold change” value [1] was 1.59, the “Asb11 Fold change” value [1] was −1.51 and the “Avpr1b Fold change” value [1] was 2.54. The “Basp1 Fold change” value [1] was 1.65, the “Blnk Fold change” value [1] was 1.55 and the “Bok Fold change” value [1] was −1.85. The “Car9 Fold change” value [1] was −1.55, the “Cdc42ep1 Fold change” value [1] was −1.54 and the “Clec2d Fold change” value [1] was 1.82. The “Clic6 Fold change” value [1] was −1.69, the “Clu Fold change” value [1] was −1.80 and the “Cnih2 Fold change” value [1] was 1.55. The “Cobl Fold change” value [1] was 1.58, the “Ctse Fold change” value [1] was −1.50 and the “Dbpht2 Fold change” value [1] was 1.87. For the same molecule, the “Dmbt1 Fold change” value [1] was −1.61, the “Dpp6 Fold change” value [1] was 1.79 and the “Drc1 Fold change” value [1] was 1.96. The “Eda2r Fold change” value [1] was 1.59, the “Eef1a2 Fold change” value [1] was 2.18 and the “Ehf Fold change” value [1] was 1.61. The “Etv1 Fold change” value [1] was 1.62, the “F5 Fold change” value [1] was 1.51 and the “Ffar4 Fold change” value [1] was 1.78. The “Fgd3 Fold change” value [1] was −1.67, the “Fgl2 Fold change” value [1] was 1.65 and the “Gamt Fold change” value [1] was −1.50. The “Gbp8 Fold change” value [1] was 1.84, the “Gbp9 Fold change” value [1] was 1.74 and the “Gc Fold change” value [1] was 1.83. For the same molecule, the “Gcg Fold change” value [1] was 3.55, the “Gcnt4 Fold change” value [1] was 1.58 and the “Gfra1 Fold change” value [1] was 1.53. For the same molecule, the “Gfra3 Fold change” value [1] was 2.71, the “Gm609 Fold change” value [1] was 2.04 and the “Gm20554 Fold change” value [1] was 1.67. The “Gng2 Fold change” value [1] was 1.63, the “Gpr119 Fold change” value [1] was 1.54 and the “Gpx3 Fold change” value [1] was 2.86. For the same molecule, the “Hspb1 Fold change” value [1] was −1.54, the “Ifih1 Fold change” value [1] was 2.33 and the “Igsf23 Fold change” value [1] was −1.65. For the same molecule, the “Irx1 Fold change” value [1] was 1.83, the “Irx2 Fold change” value [1] was 2.00 and the “Itgb4 Fold change” value [1] was −1.69. The “Jchain Fold change” value [1] was 1.57, the “Kcna2 Fold change” value [1] was −1.68 and the “Kcnab3 Fold change” value [1] was −1.73. For the same molecule, the “Kcnf1 Fold change” value [1] was −1.56, the “Kcnk3 Fold change” value [1] was 2.23 and the “Klb Fold change” value [1] was 1.77. For the same molecule, the “Klhl13 Fold change” value [1] was 1.91, the “Krt19 Fold change” value [1] was −1.61 and the “Krt20 Fold change” value [1] was −1.63. For the same molecule, the “Krt23 Fold change” value [1] was −1.96, the “Lamb3 Fold change” value [1] was −1.71 and the “Mafb Fold change” value [1] was 1.86. The “Mamld1 Fold change” value [1] was 1.75, the “Mapk13 Fold change” value [1] was −1.50 and the “Matn2 Fold change” value [1] was −1.55. For the same molecule, the “Ndst4 Fold change” value [1] was 2.71, the “Necab2 Fold change” value [1] was −1.50 and the “Nefm Fold change” value [1] was 1.53. For the same molecule, the “Npr1 Fold change” value [1] was −1.65, the “Nptxr Fold change” value [1] was −1.57 and the “Nsg2 Fold change” value [1] was 1.56. For the same molecule, the “Ntn1 Fold change” value [1] was −1.61, the “Nudt11 Fold change” value [1] was 2.00 and the “Nyap1 Fold change” value [1] was 1.77. The “Ocrl Fold change” value [1] was 1.57, the “Oit1 Fold change” value [1] was 1.71 and the “Olfm3 Fold change” value [1] was 1.96. The “Oxtr Fold change” value [1] was 1.53, the “Pdk4 Fold change” value [1] was 2.83 and the “Peg10 Fold change” value [1] was 2.06. The “Pla2g2d Fold change” value [1] was 1.50, the “Ptf1a Fold change” value [1] was −1.95 and the “Ptprd Fold change” value [1] was 1.62. For the same molecule, the “Ptprg Fold change” value [1] was 1.52, the “Rasd1 Fold change” value [1] was −1.54 and the “Rbms3 Fold change” value [1] was 1.51. The “Rbp4 Fold change” value [1] was 1.64, the “Rcn1 Fold change” value [1] was 1.54 and the “Rragb Fold change” value [1] was 1.67. For the same molecule, the “Sema3e Fold change” value [1] was 1.81, the “Serpinb6b Fold change” value [1] was −1.68 and the “Serpine2 Fold change” value [1] was 2.80. The “Serping1 Fold change” value [1] was 1.71, the “Sftpd Fold change” value [1] was 2.07 and the “Sgce Fold change” value [1] was 1.84. The “Sh2d4a Fold change” value [1] was −1.52, the “Sh3bgr Fold change” value [1] was 1.54 and the “Slc38a3 Fold change” value [1] was −1.54. For the same molecule, the “Slc38a5 Fold change” value [1] was 5.54, the “Smarca1 Fold change” value [1] was 1.88 and the “Spns2 Fold change” value [1] was −1.76. The “St8sia1 Fold change” value [1] was −1.67, the “Syt16 Fold change” value [1] was 1.63 and the “Tead2 Fold change” value [1] was −1.60. For the same molecule, the “Tesc Fold change” value [1] was 1.54, the “Tmsb15b1 Fold change” value [1] was 1.60 and the “Tspan1 Fold change” value [1] was −2.50. For the same molecule, the “Ttr Fold change” value [1] was 4.27, the “Vnn1 Fold change” value [1] was −1.50 and the “Vwde Fold change” value [1] was 2.23. For the same molecule, the “Wfdc16 Fold change” value [1] was 1.51 and the “Wnk3 Fold change” value [1] was 2.33.
